According to patent US20180230200A1 (CITY OF HOPE, published 2018):

Legend:
[1] = molecular target: gH/gL/UL128/UL130/UL131A pentamer complex (PC) of HCMV strain TB40/E virus (human cytomegalovirus strain TB40/E); experiment: cell-based or functional assay
[2] = molecular target: gH/gL/UL128/UL130/UL131A pentamer complex (PC) of HCMV strain TR virus (human cytomegalovirus strain TR); experiment: cell-based or functional assay
[3] = molecular target: T1, UL130 expressed from MVA in BHK-21 cells (human cytomegalovirus, UniProt P16772 1-214); experiment: intracellular FC, MVA-infected BHK-21
T1 construct: whole, on cells

[4] = molecular target: T2, UL131A expressed from MVA in BHK-21 cells (human cytomegalovirus, UniProt F5HET4 19-129); experiment: intracellular FC, MVA-infected BHK-21
T2 construct: whole, on cells

[5] = molecular target: T3, UL130/UL131A co-expressed from MVA in BHK-21 cells (human cytomegalovirus, UniProt P16772 1-214; F5HET4 19-129); experiment: intracellular FC, MVA-infected BHK-21
T3 construct: whole, on cells

[6] = molecular target: T4, gH expressed from MVA in BHK-21 cells (human cytomegalovirus, UniProt P12824 24-743); experiment: intracellular FC, MVA-infected BHK-21
T4 construct: whole, on cells

[7] = molecular target: T5, gH/gL co-expressed from MVA in BHK-21 cells (human cytomegalovirus, UniProt P12824 24-743; P16832 31-278); experiment: intracellular FC, MVA-infected BHK-21
T5 construct: whole, on cells

[8] = molecular target: T6, gH/gL/UL130 co-expressed from MVA in BHK-21 cells (human cytomegalovirus, UniProt P12824 24-743; P16832 31-278; P16772 1-214); experiment: intracellular FC, MVA-infected BHK-21
T6 construct: whole, on cells

[9] = molecular target: T7, gH/gL/UL131A co-expressed from MVA in BHK-21 cells (human cytomegalovirus, UniProt P12824 24-743; P16832 31-278; F5HET4 19-129); experiment: intracellular FC, MVA-infected BHK-21
T7 construct: whole, on cells

[10] = molecular target: T8, gH/gL/UL130/UL131A co-expressed from MVA in BHK-21 cells (human cytomegalovirus, UniProt P12824 24-743; P16832 31-278; P16772 1-214; F5HET4 19-129); experiment: intracellular FC, MVA-infected BHK-21
T8 construct: whole, on cells

[11] = molecular target: T9, KLH-K15M (human cytomegalovirus); experiment: ELISA with KLH-coupled peptides (FIG. 11A)
T9 peptide: KHKRLDVCRAKMGYM

[12] = molecular target: T10, KLH-K14CS; experiment: ELISA with KLH-coupled peptides (FIG. 11A)
T10 peptide: KRLDVSRAKMGYMC

[13] = molecular target: T11, KLH-K16CS; experiment: ELISA with KLH-coupled peptides (FIG. 11A)
T11 peptide: KHKRLDVSRAKMGYMC

[14] = molecular target: T12, gH/gL/UL128/UL130/UL131A pentamer complex expressed from MVA-PC in BHK-21 cells (human cytomegalovirus, UniProt P12824 24-743; P16832 31-278; P16837 28-171; P16772 1-214; F5HET4 19-129); experiment: FC, biotinylated NAb titrated on MVA-PC-infected BHK-21 (cell surface PC)
T12 construct: whole, on cells

[15] = molecular target: T12, gH/gL/UL128/UL130/UL131A pentamer …; experiment: FC competition, MVA-PC BHK-21; unlabelled row Ab; competitor: biotinylated 1B2
[16] = molecular target: T12, gH/gL/UL128/UL130/UL131A pentamer …; experiment: FC competition, MVA-PC BHK-21; unlabelled row Ab; competitor: biotinylated 12E2
[17] = molecular target: T12, gH/gL/UL128/UL130/UL131A pentamer …; experiment: FC competition, MVA-PC BHK-21; unlabelled row Ab; competitor: biotinylated 13B5
[18] = molecular target: T12, gH/gL/UL128/UL130/UL131A pentamer …; experiment: FC competition, MVA-PC BHK-21; unlabelled row Ab; competitor: biotinylated 21F6
[19] = molecular target: T12, gH/gL/UL128/UL130/UL131A pentamer …; experiment: FC competition, MVA-PC BHK-21; unlabelled row Ab; competitor: biotinylated 18F10
[20] = molecular target: T12, gH/gL/UL128/UL130/UL131A pentamer …; experiment: FC competition, MVA-PC BHK-21; unlabelled row Ab; competitor: biotinylated 54E11

B1: 13B5 (antibody, V domains shown)
VH: QVTLKESGPGILKPSQTLSLTCSFSGFSLTTSGLGVGWIRQPSGKGLEWLAHIWWDDDKYFNPSLRNQLTISKDTSRNQVFLEITSVTTADTATYYCVRSLYDYDEGYYFDSWGQGTTLTVSS
VL: EIVMIQSPATLSVNPGDRVSLSCRASQSISDYLHWYQQKSHESPRLLIKYASQSISGIPSRFSGSGSGSDFTLSINSVEPEDVGVYYCQNGHTFPPTFGGGTKLEIK
notes: also called NAb 13B5; 1365
IC50, inhibition of TB40/E cell-to-cell spread in ARPE-19 [1]: 22 µg/mL
IC50, neutralization of TB40/E infection of ARPE-19 [1]: 0.015 µg/mL
IC50, neutralization of TB40/E infection of CTB [1]: 0.0998 µg/mL
IC50, neutralization of TB40/E infection of HUVEC [1]: 0.012 µg/mL
IC50, neutralization of TB40/E infection of MRC-5 [1]: > 25 µg/mL
IC50, inhibition of TR cell-to-cell spread in ARPE-19 [2]: 21 µg/mL
IC50, neutralization of TR infection of ARPE-19 [2]: 0.0199 µg/mL
IC50, neutralization of TR infection of HUVEC [2]: 0.0077 µg/mL
IC50, neutralization of TR infection of MRC-5 [2]: > 25 µg/mL
binding result [3]: no binding
binding result [4]: no binding
binding result [5]: no binding
binding result [6]: no binding
binding result [7]: no binding
binding result [8]: no binding
binding result [9]: no binding
binding result [10]: no binding
binding result [11]: binds
binding result [12]: binds
binding result [13]: binds
EC50 [14]: 0.68 nM
Binding Inhibition (%) [15]: 0%
Binding Inhibition (%) [16]: 0%
Binding Inhibition (%) [17]: 100%
Binding Inhibition (%) [18]: 0%
Binding Inhibition (%) [19]: 0%
Binding Inhibition (%) [20]: 0%
